The test has as its target TrkA. Kind of test: in situ PLA, anti-Trk plus anti-total IRS1. The note with it: sites Y608.

IRS1, sequence (P35570 whole entry, looked up, change not shown): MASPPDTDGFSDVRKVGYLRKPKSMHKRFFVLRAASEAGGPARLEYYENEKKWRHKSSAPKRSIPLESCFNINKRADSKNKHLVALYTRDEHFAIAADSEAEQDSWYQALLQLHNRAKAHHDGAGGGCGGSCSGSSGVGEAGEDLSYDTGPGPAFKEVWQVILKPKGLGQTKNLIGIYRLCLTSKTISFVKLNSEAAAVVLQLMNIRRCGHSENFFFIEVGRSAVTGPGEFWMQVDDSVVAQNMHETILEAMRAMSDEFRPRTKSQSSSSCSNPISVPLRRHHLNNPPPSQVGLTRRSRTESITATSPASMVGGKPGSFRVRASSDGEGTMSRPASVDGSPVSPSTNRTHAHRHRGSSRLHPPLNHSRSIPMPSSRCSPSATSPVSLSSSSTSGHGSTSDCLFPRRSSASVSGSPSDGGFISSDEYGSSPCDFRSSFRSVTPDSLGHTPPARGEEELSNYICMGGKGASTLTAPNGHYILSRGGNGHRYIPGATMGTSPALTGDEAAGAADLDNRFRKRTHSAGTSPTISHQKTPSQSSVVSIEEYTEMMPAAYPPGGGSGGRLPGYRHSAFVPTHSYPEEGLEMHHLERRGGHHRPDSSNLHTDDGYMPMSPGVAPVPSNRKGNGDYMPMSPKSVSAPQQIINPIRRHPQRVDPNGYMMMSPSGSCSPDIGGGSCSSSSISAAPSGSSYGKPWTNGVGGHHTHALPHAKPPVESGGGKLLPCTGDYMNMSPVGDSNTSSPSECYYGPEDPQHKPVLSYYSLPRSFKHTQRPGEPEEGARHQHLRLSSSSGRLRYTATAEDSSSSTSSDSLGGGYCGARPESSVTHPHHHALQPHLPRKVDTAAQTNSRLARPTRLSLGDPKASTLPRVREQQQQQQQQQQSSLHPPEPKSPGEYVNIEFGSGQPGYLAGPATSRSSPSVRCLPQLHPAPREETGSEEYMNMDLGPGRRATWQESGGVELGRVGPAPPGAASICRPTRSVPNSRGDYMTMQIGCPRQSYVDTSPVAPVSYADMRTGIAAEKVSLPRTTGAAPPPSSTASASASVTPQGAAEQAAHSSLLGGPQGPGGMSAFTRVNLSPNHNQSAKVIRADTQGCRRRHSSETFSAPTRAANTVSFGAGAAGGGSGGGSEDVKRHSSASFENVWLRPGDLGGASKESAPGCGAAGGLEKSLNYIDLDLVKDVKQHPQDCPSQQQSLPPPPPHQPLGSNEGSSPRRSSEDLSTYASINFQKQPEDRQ

“IRS1 (from UniProt P35570) NGF 100 ng/ml, 30 min”: under “reference: untreated neurons (CTR)”, the “other: PLA dots per neuron” value was “stronger; reference 50.6 ± 5.9”. For “IRS1 (from UniProt P35570) NGF after NT157 preincubation (10 µM, 2 h)”, under “reference: NGF-treated neurons”, the “other: PLA dots per neuron” value is given as “weaker; reference 121.5 ± 16.4”.

For the origin of these results see PMC6334735.
